Common to all, as to experiment: purified protein
Data set [1] has as its system T1, NC(=O)c1ccc[n+]([C@@H]2O[C@H](COP(=O)(O)OP(=O)(O)OC[C@H]3O[C@@H](n4cnc5c(N)ncnc54)[C@H](O)[C@@H]3O)[C@@H](O)[C@H]2O)c1.
T1 construct: synthetic gene in pET22b (NdeI/NotI), C-terminal His tag kept, E. coli BL21(DE3), about 44 kDa
The class given is biochemical, Pseudomonas sp. 101. The conditions noted are these: 500 mM formate, PBS, 0.05% Triton X-100.

Data set [2] has as its system T2, NC(=O)c1ccc[n+]([C@@H]2O[C@H](COP(=O)(O)OP(=O)(O)OC[C@H]3O[C@@H](n4cnc5c(N)ncnc54)[C@H](OP(=O)(O)O)[C@@H]3O)[C@@H](O)[C@H]2O)c1.
T2 construct: synthetic gene in pET22b (NdeI/NotI), C-terminal His tag kept, E. coli BL21(DE3), about 44 kDa
The format is biochemical, Pseudomonas sp. 101. The conditions noted are these: 500 mM formate, PBS, 0.05% Triton X-100.

Substrate in data set [3]: NC(=O)c1ccc[n+]([C@@H]2O[C@H](COP(=O)(O)OP(=O)(O)OC[C@H]3O[C@@H](n4cnc5c(N)ncnc54)[C@H](OP(=O)(O)O)[C@@H]3O)[C@@H](O)[C@H]2O)c1
The format is biochemical, Solanum tuberosum. The conditions noted are these: 500 mM formate, PBS, 0.05% Triton X-100; positions 197/199 from methods and Table 1, b33 prints 195/197.

Substrate in data set [4]: O=CO
The conditions noted are these: 2 mM NADP+, PBS, 0.05% Triton X-100; same doubt on QN or QH.

Substrate in data set [5]: NC(=O)c1ccc[n+]([C@@H]2O[C@H](COP(=O)(O)OP(=O)(O)OC[C@H]3O[C@@H](n4cnc5c(N)ncnc54)[C@H](OP(=O)(O)O)[C@@H]3O)[C@@H](O)[C@H]2O)c1
The class given is biochemical, Arabidopsis thaliana.

Read-outs that look alike come from different tables or passages of the source.

By Km is commonly meant the concentration of substrate that gives half-maximal velocity. Usually Vmax stands for the top rate of the reaction or transport when substrate is in excess.

On to “Pseudomonas FDH (PsFDH) (Pseudomonas sp. 101; D222Q/H224N)”, for which, in data set [1], the Km stood at 1000 ± 600 µM and the Vmax was 0.55 µM/min. For the same molecule, the Km in data set [2] was 350 ± 10 µM.

B1: potato FDH (PoFDH) (Solanum tuberosum; D224Q/L226H) (protein)
chain: LQASPGPKKIVGVFYKANEYAEMNPNFLGCAENALGIREWLESKGHQYIVTPDKEGPDCELEKHIPDLHVLISTPFHPAYVTAERIKKAKNLQLLLTAGIGSDHVDLKAAAAAGLTVAEVTGSNTVSVAEDELMRILILVRNFLPGHHQVINGEWNVAAIAHRAYDLEGKTVGTVGAGRIGRLLLQRLKPFNCNLLYHQRHKMDSELENQIGAKFEEDLDKMLSKCDIVVINTPLTEKTKGMFDKERIAKLKKGVLIVNNARGAIMDTQAVVDACNSGHIAGYSGDVWYPQPAPKDHPWRYMPNQAMTPHISGTTIDAQLRYAAGTKDMLDRYFKGEDFPAENYIVKDGELAPQYR
notes: synthetic gene in pET22b (NdeI/NotI), C-terminal His tag kept, E. coli BL21(DE3); primer encodes CNLLYH-X-R-X-KMDSEL
As for B1, the Km in the data set “purified protein [3]” was 620 ± 50 µM.

B2: Arabidopsis FDH (AtFDH) (Arabidopsis thaliana; D227Q/L229N) (protein)
chain: ASSGDSKKIVGVFYKANEYATKNPNFLGCVENALGIRDWLESQGHQYIVTDDKEGPDCELEKHIPDLHVLISTPFHPAYVTAERIKKAKNLKLLLTAGIGSDHIDLQAAAAAGLTVAEVTGSNVVSVAEDELMRILILMRNFVPGYNQVVKGEWNVAGIAYRAYDLEGKTIGTVGAGRIGKLLLQRLKPFGCNLLYHQRNQMAPELEKETGAKFVEDLNEMLPKCDVIVINMPLTEKTRGMFNKELIGKLKKGVLIVNNARGAIMERQAVVDAVESGHIGGYSGDVWDPQPAPKDHPWRYMPNQAMTPHTSGTTIDAQLRYAAGTKDMLERYFKGEDFPTENYIVKDGELAPQYR
notes: synthetic gene in pET22b (NdeI/NotI), C-terminal His tag kept, E. coli BL21(DE3); partly digested on purification; primer encodes CNLLYH-X-R-X-QMAPEL
Consider B2, for which the results for the Km in the data set “purified protein [4]” and in “purified protein [5]” were 96000 ± 14000 µM and 910 ± 70 µM, respectively.

(Values after article PMC3735542, “Light Driven CO2 Fixation by Using Cyanobacterial Photosystem I and NADPH-Dependent Formate Dehydrogenase” (PLoS ONE, 2013).)
